{
  "source": "paper doi:10.1101/2022.09.07.507024",
  "data": [
    {"molecular_target": "FMAL-labeled F-actin (rabbit skeletal muscle) (rabbit) (UniProt P68135)", "assay": "FRET or BRET", "units": {"change of FRET against WT at 2.5 uM C0-C2 (direction not told)": "%", "increase of FRET over WT at 2.5 uM C0-C2": "%"}, "values": [
      {"substance": "TMR-C0-C2^(Cys249, L349R), PKA-phosphorylated (domain or fragment)", "change of FRET against WT at 2.5 uM C0-C2 (direction not told)": 31},
      {"substance": "TMR-C0-C2^(Cys249, L349R), unphosphorylated (domain or fragment)", "change of FRET against WT at 2.5 uM C0-C2 (direction not told)": 10},
      {"substance": "TMR-C0-C2^(S85C, L349R), unphosphorylated (domain or fragment)", "change of FRET against WT at 2.5 uM C0-C2 (direction not told)": 22},
      {"substance": "TMR-C0-C2^(P330C, L352P), PKA-phosphorylated (domain or fragment)", "increase of FRET over WT at 2.5 uM C0-C2": "74 to 160"},
      {"substance": "TMR-C0-C2^(P330C, R282W), PKA-phosphorylated (domain or fragment)", "increase of FRET over WT at 2.5 uM C0-C2": 105},
      {"substance": "TMR-C0-C2^(S85C, E334K), PKA-phosphorylated (domain or fragment)", "FRET as percent of WT at 2.5 uM C0-C2 (% of wild type FRET)": 45},
      {"substance": "TMR-C0-C2^(P330C, L349R), unphosphorylated (domain or fragment)", "increase of FRET over WT at 2.5 uM C0-C2": 89},
      {"substance": "TMR-C0-C2^(P330C, T59A), unphosphorylated (domain or fragment)", "increase of FRET over WT at 2.5 uM C0-C2": 21},
      {"substance": "TMR-C0-C2^(Cys249, L352P), PKA-phosphorylated (domain or fragment)", "increase of FRET over WT at 2.5 uM C0-C2": "74 to 160"},
      {"substance": "TMR-C0-C2^(P330C, L349R), PKA-phosphorylated (domain or fragment)", "increase of FRET over WT at 2.5 uM C0-C2": 166},
      {"substance": "TMR-C0-C2^(S85C, L349R), PKA-phosphorylated (domain or fragment)", "change of FRET against WT at 2.5 uM C0-C2 (direction not told)": 4}
    ]}
  ]
}
